Target: MlucV reporter (mTFP1 - mutated firefly luciferase - Venus), urea-pre-unfolded / misfolding (firefly)

Chain of Ssa1 (yeast cytosolic Hsp70) (P10591 whole entry): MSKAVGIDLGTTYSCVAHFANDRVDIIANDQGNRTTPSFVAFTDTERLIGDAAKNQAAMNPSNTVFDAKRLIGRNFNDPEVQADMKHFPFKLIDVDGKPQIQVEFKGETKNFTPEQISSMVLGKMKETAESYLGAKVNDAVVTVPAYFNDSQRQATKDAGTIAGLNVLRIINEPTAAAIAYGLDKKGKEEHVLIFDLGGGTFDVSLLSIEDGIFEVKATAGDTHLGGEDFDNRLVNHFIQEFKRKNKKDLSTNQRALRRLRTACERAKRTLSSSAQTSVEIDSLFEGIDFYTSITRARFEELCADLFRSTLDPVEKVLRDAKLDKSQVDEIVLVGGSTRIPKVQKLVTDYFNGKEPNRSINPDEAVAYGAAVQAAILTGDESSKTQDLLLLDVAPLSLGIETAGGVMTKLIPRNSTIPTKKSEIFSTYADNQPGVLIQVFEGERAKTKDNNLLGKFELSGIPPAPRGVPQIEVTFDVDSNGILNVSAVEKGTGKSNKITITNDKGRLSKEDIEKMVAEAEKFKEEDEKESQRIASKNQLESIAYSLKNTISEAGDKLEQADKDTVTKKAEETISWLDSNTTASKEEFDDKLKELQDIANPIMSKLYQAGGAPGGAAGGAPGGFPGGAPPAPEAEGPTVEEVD
Chain of Ydj1 (yeast class A J-domain protein) (P25491 whole entry): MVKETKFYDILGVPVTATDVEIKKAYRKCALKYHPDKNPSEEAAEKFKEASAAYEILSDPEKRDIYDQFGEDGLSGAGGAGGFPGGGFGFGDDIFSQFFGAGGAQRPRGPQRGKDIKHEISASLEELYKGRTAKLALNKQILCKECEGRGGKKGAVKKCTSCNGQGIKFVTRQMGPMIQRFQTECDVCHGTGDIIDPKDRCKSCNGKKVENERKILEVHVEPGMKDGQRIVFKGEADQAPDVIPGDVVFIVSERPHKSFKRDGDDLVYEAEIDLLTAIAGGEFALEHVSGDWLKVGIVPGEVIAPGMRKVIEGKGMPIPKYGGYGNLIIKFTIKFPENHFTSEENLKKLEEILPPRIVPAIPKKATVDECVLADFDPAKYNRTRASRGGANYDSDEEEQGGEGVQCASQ

prevention of aggregation: normalised FRET of urea-pre-unfolded MlucV diluted into increasing Ssa1 (150% without chaperone) (% of the FRET of native MlucV)	prevention of aggregation: normalised FRET of urea-pre-unfolded MlucV diluted into increasing Ydj1 (150% without Ydj1; native MlucV = 100%) (% of the FRET of native MlucV)	Substance
145	–	Ssa1 (yeast cytosolic Hsp70) (from UniProt P10591 1-642) (natural protein)
–	105	Ydj1 (yeast class A J-domain protein) (from UniProt P25491 1-409) (natural protein)

Reference: article PMC12305717
